Test results taken from IntAct's records for PubMed 17167417.

B1: DNA replication regulator DPB11 (Saccharomyces cerevisiae), P47027 (parent)
chain: MKPFQGITFCPTAINNEILAKKISKKIIKLGGIFSKDLTRQVNVLVVGSTTNTNKFKFAVKHRFDIIFIDIQAIDDIYQLWLSGENILPDSNTATMTGSTYEMLKILYRRFSFKYLHNFNIFIGRITDTNITSIDSLVRSIKKLGCSSYNYQNFVIKDTSSHNDDDDQGQNGQISIFVTDTLLGARVNAAIEQNIPIVHFKWILDCQKRSALLPYDPYYLLPNIKDLPYDSIGSNSCDCWDKINTTFPTNIDAQSSLQRQQSSSTLTPSLPKTSSLLNKFKPKGEKIWDKAMSLQQHSKTNFSVLGQSPLSINNKQEDLSDNSTLIFKNCAFIIHHIFPGNHRSILTKIVVQNGGKIETSYLSGIYDHSYYIIPSNKALDSFNDLPEIIDDNDGIVTEFFIERCLYYQKLLHPIDLWSKPFLSTIEFQVSSSSKLLHHEFSSSPFLNVTITGFSGVELLHLTKVLNLLKPMGINYVEYLNKSTDILLINLAALPSIPKTHPLWSNEFSDLFTQFCINNNNDDPGDNNRKDFQNNSILRNSMKRKIEYIKKFHSIPVVTPAFIFKLLSAASGENNEIFLNNIKWCIICPRGHKDDFKCKIKKPYYTSISSEKKYQNNDPKIDKTILLKRNNSSLSEHSMKDTKNELLQKIRETDSGRKKRSVSSSIMDVSSERQMPDTKRIKLESLPKNFVPKQIKRTTSWGTIMSENVPTEQPTAISNPEEIPRTEEVSHTQVTYGSIQDKKRTASLEKPMRRQTRNQTKELDS
partner: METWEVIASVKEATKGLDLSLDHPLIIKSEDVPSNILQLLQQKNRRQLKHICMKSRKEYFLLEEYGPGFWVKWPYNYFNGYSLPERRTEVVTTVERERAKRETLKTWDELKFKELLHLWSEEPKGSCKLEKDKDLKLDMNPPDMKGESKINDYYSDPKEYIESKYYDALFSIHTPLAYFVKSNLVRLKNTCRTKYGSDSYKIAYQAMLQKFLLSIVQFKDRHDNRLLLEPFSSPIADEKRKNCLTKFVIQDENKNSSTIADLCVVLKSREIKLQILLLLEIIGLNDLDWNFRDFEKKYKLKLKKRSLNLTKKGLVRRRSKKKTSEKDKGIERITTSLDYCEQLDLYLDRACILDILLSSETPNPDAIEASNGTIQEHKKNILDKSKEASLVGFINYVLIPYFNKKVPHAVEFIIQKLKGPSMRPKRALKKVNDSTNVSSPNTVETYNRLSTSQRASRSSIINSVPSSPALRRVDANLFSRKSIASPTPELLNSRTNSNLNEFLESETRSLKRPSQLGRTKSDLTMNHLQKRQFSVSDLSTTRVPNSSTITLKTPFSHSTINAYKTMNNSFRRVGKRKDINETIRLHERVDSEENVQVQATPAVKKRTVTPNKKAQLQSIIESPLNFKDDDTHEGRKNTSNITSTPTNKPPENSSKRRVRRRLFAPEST

Variants of: B1
Conditions: with sld3_yeast SLD3, P53135
For K55D;F56P, the “effect of a mutation on the interaction” value was “disrupting interaction strength”.
